For 1 molecule, Kd results are on record in article PMC11110392, “A first-in-class inhibitor of HSP110 to potentiate XPO1-targeted therapy in primary mediastinal B-cell lymphoma and classical Hodgkin lymphoma” (Journal of Experimental & Clinical Cancer Research : CR, 2024).

By Kd is commonly meant the equilibrium constant for the complex coming apart.

This test concerns the target T1, His-tagged HSP110 (recombinant) (UniProt Q92598 1-858, non-covalent RED-Tris-NTA 2nd generation dye on the His tag).
T1 construct: recombinant HSP110, OriGene TP307102; also called recombinant HSP110; TP307102; source: bought: OriGene (TP307102)
Kind of test: MST; Monolith NT.115; His-tagged HSP110 labelled with RED-Tris-NTA 2nd generation, fixed at 50 nM; STAT6 titrated from 2.39 µM to 0.07 nM. Particulars: both partners purified.

T1 sequence (Q92598 whole entry): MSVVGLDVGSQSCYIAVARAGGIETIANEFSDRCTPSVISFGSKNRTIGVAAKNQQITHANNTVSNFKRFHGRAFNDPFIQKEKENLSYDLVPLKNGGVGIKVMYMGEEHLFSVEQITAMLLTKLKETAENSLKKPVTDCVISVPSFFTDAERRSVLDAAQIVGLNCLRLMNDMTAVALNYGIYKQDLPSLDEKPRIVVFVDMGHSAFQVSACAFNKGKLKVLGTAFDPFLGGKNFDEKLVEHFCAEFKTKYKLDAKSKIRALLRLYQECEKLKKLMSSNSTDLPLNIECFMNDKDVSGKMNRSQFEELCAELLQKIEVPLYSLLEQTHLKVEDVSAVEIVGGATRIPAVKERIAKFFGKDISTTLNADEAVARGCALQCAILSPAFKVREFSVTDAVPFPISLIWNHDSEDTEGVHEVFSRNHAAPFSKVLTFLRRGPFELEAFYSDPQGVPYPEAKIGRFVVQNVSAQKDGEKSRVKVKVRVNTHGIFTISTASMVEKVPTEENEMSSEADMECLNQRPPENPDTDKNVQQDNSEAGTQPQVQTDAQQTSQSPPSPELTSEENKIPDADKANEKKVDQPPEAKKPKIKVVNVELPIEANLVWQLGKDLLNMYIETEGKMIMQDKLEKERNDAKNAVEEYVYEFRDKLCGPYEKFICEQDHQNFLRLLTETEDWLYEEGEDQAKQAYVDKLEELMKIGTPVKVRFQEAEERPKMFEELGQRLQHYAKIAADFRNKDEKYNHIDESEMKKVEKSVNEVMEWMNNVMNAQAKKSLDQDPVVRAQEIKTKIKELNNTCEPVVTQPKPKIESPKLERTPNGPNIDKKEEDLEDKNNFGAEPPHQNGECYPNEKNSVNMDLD

B1: STAT6 (recombinant) (natural protein, UniProt P42226 1-847, looked up)
chain: MSLWGLVSKMPPEKVQRLYVDFPQHLRHLLGDWLESQPWEFLVGSDAFCCNLASALLSDTVQHLQASVGEQGEGSTILQHISTLESIYQRDPLKLVATFRQILQGEKKAVMEQFRHLPMPFHWKQEELKFKTGLRRLQHRVGEIHLLREALQKGAEAGQVSLHSLIETPANGTGPSEALAMLLQETTGELEAAKALVLKRIQIWKRQQQLAGNGAPFEESLAPLQERCESLVDIYSQLQQEVGAAGGELEPKTRASLTGRLDEVLRTLVTSCFLVEKQPPQVLKTQTKFQAGVRFLLGLRFLGAPAKPPLVRADMVTEKQARELSVPQGPGAGAESTGEIINNTVPLENSIPGNCCSALFKNLLLKKIKRCERKGTESVTEEKCAVLFSASFTLGPGKLPIQLQALSLPLVVIVHGNQDNNAKATILWDNAFSEMDRVPFVVAERVPWEKMCETLNLKFMAEVGTNRGLLPEHFLFLAQKIFNDNSLSMEAFQHRSVSWSQFNKEILLGRGFTFWQWFDGVLDLTKRCLRSYWSDRLIIGFISKQYVTSLLLNEPDGTFLLRFSDSEIGGITIAHVIRGQDGSPQIENIQPFSAKDLSIRSLGDRIRDLAQLKNLYPKKPKDEAFRSHYKPEQMGKDGRGYVPATIKMTVERDQPLPTPELQMPTMVPSYDLGMAPDSSMSMQLGPDMVPQVYPPHSHSIPPYQGLSPEESVNVLSAFQEPHLQMPPSLGQMSLPFDQPHPQGLLPCQPQEHAVSSPDPLLCSDVTMVEDSCLSQPVTAFPQGTWIGEDIFPPLLPPTEQDLTKLLLEGQGESGGGSLGAQPLLQPSHYGQSGISMSHMDLRANPSW
notes: recombinant STAT6, Abcam ab125625; also called recombinant STAT6; ab125625; source: bought: Abcam (ab125625)
On to B1, for which the Kd was found to be 26.7 ± 12.3 nM.
